Data: article PMC11165160, “Four novel Cit7GlcTs functional in flavonoid 7-O-glucoside biosynthesis are vital to flavonoid biosynthesis shunting in citrus” (Horticulture Research, 2024)

Experiments:
Experiment in all cases: HPLC product assay, Michaelis-Menten fit
Format in all cases: biochemical, Citrus maxima
[1] = substrate: O=C1C[C@@H](c2ccc(O)cc2)Oc2cc(O)cc(O)c21; conditions: 1 mM UDP-glucose, 50 mM PBS pH 7.0, 35 °C
Excerpt: (§1) HPLC product assay, Michaelis-Menten fit on CgUGT89AK1

[2] = substrate: O=c1cc(-c2ccc(O)cc2)oc2cc(O)cc(O)c12; conditions: 1 mM UDP-glucose, 50 mM PBS pH 7.0, 35 °C
Excerpt: as §1

[3] = substrate: O=C1C[C@@H](c2ccc(O)c(O)c2)Oc2cc(O)cc(O)c21; conditions: 1 mM UDP-glucose, 50 mM PBS pH 7.0, 35 °C
Excerpt: as §1

[4] = substrate: COc1ccc(-c2cc(=O)c3c(O)cc(O)cc3o2)cc1O; conditions: 1 mM UDP-glucose, 50 mM PBS pH 7.0, 35 °C
Excerpt: as §1

[5] = substrate: O=c1c(O)c(-c2ccc(O)c(O)c2)oc2cc(O)cc(O)c12; conditions: 1 mM UDP-glucose, 50 mM PBS pH 7.0, 35 °C
Excerpt: as §1

[6] = substrate: O=c1c(O)c(-c2ccc(O)cc2)oc2cc(O)cc(O)c12; conditions: 1 mM UDP-glucose
[7] = substrate: COc1ccc([C@@H]2CC(=O)c3c(O)cc(O)cc3O2)cc1O; conditions: 1 mM UDP-glucose
[8] = substrate: O=C1C[C@@H](c2ccc(O)cc2)Oc2cc(O)cc(O)c21; conditions: 1 mM UDP-glucose
[9] = substrate: O=c1cc(-c2ccc(O)cc2)oc2cc(O)cc(O)c12; conditions: 1 mM UDP-glucose
[10] = substrate: COc1ccc(-c2cc(=O)c3c(O)cc(O)cc3o2)cc1O; conditions: 1 mM UDP-glucose, 50 mM PBS pH 7.0, 35 °C; remark: listed apart in the source

B1: CgUGT89AK1 (Citrus maxima) (protein)
chain: MLPAGAHILVYPFPTSGHIIPLLDLTNRLLTLGLNVTVLITQNNLPLLDSLNANHPSTSLQSLVLPQPKWPAGSPATRLLKFMRVLRELHYPALLDWFKSHPSPPVAILSDFFLGWTQGLAAELGLPRVVFSPSGAFALSVSFAMWTDLPTNDDPDNVDALVSFPRVPNCPVYHWYQISHLYRTLKEGDPDWDLHRSNMMANKTSWGIVFNSFAELERVYIDHMKKEMGHDRVWAVGPVLPPDDDLVESMCRGGSSSVPAHDVLTWLDSRRDESVVYVCFGSRYVLTAKQIHELAAALEKTDVDFVYCVREPDERHASQDCGVLPDGFEDRVAGRGYVIRGWSQQVAILRHKAVGAFLTHCGWNSVLEGVSAGVVMLTWPMDADQYTNAQLLVDQLGVGIRVGEGTRNIPESGELARLLAQSVDGPRRERLKARELSGAALSAVVKGGSSDRDLNDFIKRINELKSGKNLTAV
In the case of B1, the Km [1] is reported as 52.88 ± 17.30 µM, the kcat/Km [1] is reported as 48.3 M⁻¹ s⁻¹ and the Km [2] is reported as 24.37 ± 5.03 µM. For the same protein, the kcat/Km [2] was 107 M⁻¹ s⁻¹, the Km [3] was 26.25 ± 5.65 µM and the kcat/Km [3] was 154 M⁻¹ s⁻¹. The Km [4] was 6.16 ± 2.64 µM, the kcat/Km [4] was 284 M⁻¹ s⁻¹ and the Km [5] was 19.44 ± 11.00 µM. The kcat/Km [5] was 1350 M⁻¹ s⁻¹.

B2: CgUGT73AC12 (Citrus maxima) (protein)
chain: MDSKSSPVEMFFFPYVGGGHQIPMVDIARIFAAHGAKSTIITSPKHALSFQKSINRNQQSGLPITIKTLHLPDDIEIPDTDMSATPRTDTSMLQKPLKSLLLDSRPDCIVHDMFHHWSADVINSMNIPRIVFNGNCCFSRCVLENVRKYKPHEKVSSDYEPFVVPGLPDKIELTSSQLPVGARQQEAGSVHKMFAKPEEKSFGIVVNSFYDLEPAYVEYFKQDLGNDKAWFVGPVSLCNRNIEDKAERGQKTSIDEGKILSFLDSKETNSVLYISFGSLARLAPEQLLEIAYGLEASNHSFIWVVGKIFQSPGTRKENGIEENWLPSGFEERMRESKRGLIIRGWAPQLLILEHAAVGGFMTHCGWNSTLESVSAGVPMVTWPITAEQFSNEKLISDVLKIGVKVGSVNWVSWSTEPSAAVGRDKVEVAVKRLMGTGEEAAEMRRRAGELGEKAKNAVEEGGSSFIDAEALLQELKSLSRI
Work on B2 yielded a Km ([6]; 50 mM PBS pH 7.0, 35 °C) of 92.58 ± 55.02 µM, a kcat/Km ([6]; 50 mM PBS pH 7.0, 35 °C) of 11 M⁻¹ s⁻¹ and a Km ([7]; 50 mM PBS pH 7.0, 35 °C) of 169.68 ± 54.77 µM. For the same protein, the kcat/Km ([7]; 50 mM PBS pH 7.0, 35 °C) was 5.62 M⁻¹ s⁻¹, the Km ([8]; 50 mM PBS pH 7.0, 35 °C) was 105.34 ± 35.62 µM and the kcat/Km ([8]; 50 mM PBS pH 7.0, 35 °C) was 6.36 M⁻¹ s⁻¹. It also gave a Km ([9]; 50 mM PBS pH 7.0, 35 °C) of 153.66 ± 62.17 µM and a kcat/Km ([9]; 50 mM PBS pH 7.0, 35 °C) of 5.93 M⁻¹ s⁻¹.

B3: CgUGT90A31 (Citrus maxima) (protein)
chain: MGSISSDHHVVLFPFMSKGHIIPILNLVQLLLRRPRVTVTVFTTPANRPFTSKFLSNSSTAACSIIDIPYPENVPEIPAGVESTDKLPSMSLYVPFTRATKLMQPHFERALESLPRVSFMVSDGFLWWTLDSANKFGFPRLVFYGMNNYAMSVSRSVGQNRLLSGVQSDDELLTLPEFPWIKITKKDFDSPITDPEPKGPHFELFIDQIVSTSNSHGMIVNSFYELEPLFADHCNRVGKPKSWCVGPLCLAELPPKNEEPKNELSKPAWIKWLDRKLDEGSSVMYVAFGSQAEISAQQLKEIAIGLEQSKVNFLWVIRTAQSELGDGFEERVKGRGLVVRDWVDQNEILWHGSVQGFLSHCGWNSTLESICAGVPILAWPMMAEQPLNARMVTEEIKVGLRVETCDGSVRGFVKWRGLEKTMRELMGGEKGEKARTKVKELSEIARKAMEEGKGSSWRCLDMLLDETCKLEQHD
In the case of B3, the Km ([6]; 50 mM PBS pH 7.0, 35 °C) is reported as 56.20 ± 19.14 µM, the kcat/Km ([6]; 50 mM PBS pH 7.0, 35 °C) is reported as 6.48 M⁻¹ s⁻¹ and the Km ([7]; 50 mM PBS pH 7.0, 35 °C) is reported as 179.10 ± 48.24 µM. The kcat/Km ([7]; 50 mM PBS pH 7.0, 35 °C) was 51.4 M⁻¹ s⁻¹, the Km ([8]; 50 mM PBS pH 7.0, 35 °C) was 139.04 ± 40.50 µM and the kcat/Km ([8]; 50 mM PBS pH 7.0, 35 °C) was 52 M⁻¹ s⁻¹. The Km [10] was 34.93 ± 10.80 µM and the kcat/Km [10] was 15.8 M⁻¹ s⁻¹.

B4: CgUGT89D30 (Citrus maxima) (protein)
chain: MSSSNTRTTHILIFPYPAQGHMLPLLDLTHQLSLKDLDITILVTPKNLPILSPLLDAHPAIKTLVLPFPSHPSIPPGIENVRELGNRGNYPIMTALGKLYGPIIDWFRSQANPPVAILSDFFLGWTLKLAHQLNIVRIAFFSSGWLLASVVDYCWHHIGDVKSLDVVEFPDLPRYPVFKRRHLPSMVRSYKESDPESQFVKDGNLANTSSWGCVFNSFDALEGEYSDYLKRKMGHDRVFGVGPLSLVGLESTGGGDPGLGPNDHVTKWLDGCPDGSVVYVCFGSQKALKRDQMEALASGLEKSGIRFLWVVKTGMIGKGDDGYGSMPDGFEEQVAGRGLVLKGWAPQVSILSHKAVGGFLSHCGWNSLLEGIVGGAMILAWPMEADQFVNAKLLVEDLGVAVQVCEGADSVPDSDELGNIIAESLSQRDEVKIKAKELRDDALAAVKSDGSSARDLDRLVEELRNLHAK
B4 gave a Km ([6]; 50 mM PBS pH 7.0, 30 °C) of 35.76 ± 18.07 µM, a kcat/Km ([6]; 50 mM PBS pH 7.0, 30 °C) of 21.9 M⁻¹ s⁻¹ and a Km ([7]; 50 mM PBS pH 7.0, 30 °C) of 207.41 ± 77.33 µM. For the same protein, the kcat/Km ([7]; 50 mM PBS pH 7.0, 30 °C) was 11 M⁻¹ s⁻¹, the Km ([8]; 50 mM PBS pH 7.0, 30 °C) was 79.57 ± 5.51 µM and the kcat/Km ([8]; 50 mM PBS pH 7.0, 30 °C) was 18.1 M⁻¹ s⁻¹. It also gave a Km ([9]; 50 mM PBS pH 7.0, 30 °C) of 17.34 ± 10.85 µM and a kcat/Km ([9]; 50 mM PBS pH 7.0, 30 °C) of 88.2 M⁻¹ s⁻¹.
